Measured values reported in patent publication US20210309732A1 (ELIXIRON IMMUNOTHERAPEUTICS HONG KONG, published 2021).

Biological target: T1, recombinant human GM-CSF (human, UniProt P04141 18-144)
T1 construct: also called rhGM-CSF; CSF2
Assay: ELISA on coated rhGM-CSF, UBA relative to 1D2
Source text: Some of the residues in the CDRs are essential for epitope binding affinity and/or specificity. A number of computational methods were developed to detect these functional residues, generally known as ‘specificity-determining resides’ (SDRs). […] Based on the analysis, 7 amino acid residues in VH and 3 amino acid residues in VL were selected as the SDRs. The residues are labeled X₁ to X₁₀ for the ease of reference. The SDRs on VH are: Heavy chain D31 (HD31) (X₁), HK32 (X₂), HK54(X₃), HR100 (X₄), HY102 (X₅), HY103 (X₆) and HQ105 (X₇). The SDRs on VL are Light chain V32 (LV32) (X₈), LP94 (X₉) and LV95 (X₁₀). The SDRs were subsequently mutated by site-directed mutagenesis to other amino acids to generate mutant VH or VL clones. HEK293 cells were co-transfected with a vector encoding a mutant VH paired with a vector encoding a wild type VL or a vector encoding a wild type VH paired with a vector encoding a mutant VL. The antibody clones were harvested from the culture medium. The binding affinity of each antibody clone to human GM-CSF was tested by ELISA. The ELISA was done according to the following procedures. ELISA plate was coated with 50 μl of rhGM-CSF at 1 μg/mL. The plate was washed with 200 μl PBST for three times, followed by blocking with 1% BSA for 1 hour at room temperature. The antibody clones to be tested were diluted at 1:12000. 100 μl of the diluted antibodies were added to the cell at 100 μl/well. The plate was incubated at room temperature for 1 hour. The plate was then washed and incubated with 1:5000 diluted goat-anti-human secondary antibody conjugated with HRP at room temperature for one hour. The ELISA assay was developed with 100 μl developing buffer containing H₂O₂-Amplx Red per well in the dark for 5 min and the fluorescence intensity was read at Ex.530/Em.590 nm, with cutoff at 570 nm. The Unit Binding Activity (UBA) of each sample was calculated as the fluorescence signal/antibody clone dilution factor.

T1 sequence (P04141 18-144 limits assumed): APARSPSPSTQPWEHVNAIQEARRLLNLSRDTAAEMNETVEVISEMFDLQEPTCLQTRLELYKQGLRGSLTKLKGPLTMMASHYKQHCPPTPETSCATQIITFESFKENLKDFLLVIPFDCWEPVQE

| binding affinity % of 1D2 [%] | Binder |
| --- | --- |
| 47 | 1D2 SDR mutant HD31S (antibody, IgG1, V domains shown, also called X1 S) VH: QVQLVQSGAEVKKPGASVKVSCEASGYTFTSKYLHWVRQAPGQGLEWMAWINPKSGGTFYAQNFKGRVTVTRDTSINTAYLELTSLRLDDTSTYYCARGRDYYDQGAADLWGQGTMVTVSS VL: DIQLTQSPSSLSASVGDRVTITCRASQGINSVLAWYQQKPGKAPKLLLYAASKLESGVPSRFSGSGSGTDYTLTISSLQPEDFGTYYCQQYYSPVRTFGQGTKVEIKR |
| 44 | 1D2 SDR mutant HD31T (antibody, IgG1, V domains shown, also called X1 T) VH: QVQLVQSGAEVKKPGASVKVSCEASGYTFTTKYLHWVRQAPGQGLEWMAWINPKSGGTFYAQNFKGRVTVTRDTSINTAYLELTSLRLDDTSTYYCARGRDYYDQGAADLWGQGTMVTVSS VL: DIQLTQSPSSLSASVGDRVTITCRASQGINSVLAWYQQKPGKAPKLLLYAASKLESGVPSRFSGSGSGTDYTLTISSLQPEDFGTYYCQQYYSPVRTFGQGTKVEIKR |
| 71 | 1D2 SDR mutant HD31V (antibody, IgG1, V domains shown, also called X1 V) VH: QVQLVQSGAEVKKPGASVKVSCEASGYTFTVKYLHWVRQAPGQGLEWMAWINPKSGGTFYAQNFKGRVTVTRDTSINTAYLELTSLRLDDTSTYYCARGRDYYDQGAADLWGQGTMVTVSS VL: DIQLTQSPSSLSASVGDRVTITCRASQGINSVLAWYQQKPGKAPKLLLYAASKLESGVPSRFSGSGSGTDYTLTISSLQPEDFGTYYCQQYYSPVRTFGQGTKVEIKR |
| 72 | 1D2 SDR mutant HD31W (antibody, IgG1, V domains shown, also called X1 W) VH: QVQLVQSGAEVKKPGASVKVSCEASGYTFTWKYLHWVRQAPGQGLEWMAWINPKSGGTFYAQNFKGRVTVTRDTSINTAYLELTSLRLDDTSTYYCARGRDYYDQGAADLWGQGTMVTVSS VL: DIQLTQSPSSLSASVGDRVTITCRASQGINSVLAWYQQKPGKAPKLLLYAASKLESGVPSRFSGSGSGTDYTLTISSLQPEDFGTYYCQQYYSPVRTFGQGTKVEIKR |
| 61 | 1D2 SDR mutant HK32A (antibody, IgG1, V domains shown, also called X2 A) VH: QVQLVQSGAEVKKPGASVKVSCEASGYTFTDAYLHWVRQAPGQGLEWMAWINPKSGGTFYAQNFKGRVTVTRDTSINTAYLELTSLRLDDTSTYYCARGRDYYDQGAADLWGQGTMVTVSS VL: DIQLTQSPSSLSASVGDRVTITCRASQGINSVLAWYQQKPGKAPKLLLYAASKLESGVPSRFSGSGSGTDYTLTISSLQPEDFGTYYCQQYYSPVRTFGQGTKVEIKR |
| 86 | 1D2 SDR mutant HK32C (antibody, IgG1, V domains shown, also called X2 C) VH: QVQLVQSGAEVKKPGASVKVSCEASGYTFTDCYLHWVRQAPGQGLEWMAWINPKSGGTFYAQNFKGRVTVTRDTSINTAYLELTSLRLDDTSTYYCARGRDYYDQGAADLWGQGTMVTVSS VL: DIQLTQSPSSLSASVGDRVTITCRASQGINSVLAWYQQKPGKAPKLLLYAASKLESGVPSRFSGSGSGTDYTLTISSLQPEDFGTYYCQQYYSPVRTFGQGTKVEIKR |

Further lines, the binder ahead of its results:

| Binder | binding affinity % of 1D2 [%] |
| --- | --- |
| 1D2 SDR mutant HD31A (antibody, IgG1, V domains shown, also called X1 A) VH: QVQLVQSGAEVKKPGASVKVSCEASGYTFTAKYLHWVRQAPGQGLEWMAWINPKSGGTFYAQNFKGRVTVTRDTSINTAYLELTSLRLDDTSTYYCARGRDYYDQGAADLWGQGTMVTVSS VL: DIQLTQSPSSLSASVGDRVTITCRASQGINSVLAWYQQKPGKAPKLLLYAASKLESGVPSRFSGSGSGTDYTLTISSLQPEDFGTYYCQQYYSPVRTFGQGTKVEIKR | 66 |
| 1D2 SDR mutant HD31C (antibody, IgG1, V domains shown, also called X1 C) VH: QVQLVQSGAEVKKPGASVKVSCEASGYTFTCKYLHWVRQAPGQGLEWMAWINPKSGGTFYAQNFKGRVTVTRDTSINTAYLELTSLRLDDTSTYYCARGRDYYDQGAADLWGQGTMVTVSS VL: DIQLTQSPSSLSASVGDRVTITCRASQGINSVLAWYQQKPGKAPKLLLYAASKLESGVPSRFSGSGSGTDYTLTISSLQPEDFGTYYCQQYYSPVRTFGQGTKVEIKR | 79 |
| 1D2 SDR mutant HD31E (antibody, IgG1, V domains shown, also called X1 E) VH: QVQLVQSGAEVKKPGASVKVSCEASGYTFTEKYLHWVRQAPGQGLEWMAWINPKSGGTFYAQNFKGRVTVTRDTSINTAYLELTSLRLDDTSTYYCARGRDYYDQGAADLWGQGTMVTVSS VL: DIQLTQSPSSLSASVGDRVTITCRASQGINSVLAWYQQKPGKAPKLLLYAASKLESGVPSRFSGSGSGTDYTLTISSLQPEDFGTYYCQQYYSPVRTFGQGTKVEIKR | 63 |
| 1D2 SDR mutant HD31G (antibody, IgG1, V domains shown, also called X1 G) VH: QVQLVQSGAEVKKPGASVKVSCEASGYTFTGKYLHWVRQAPGQGLEWMAWINPKSGGTFYAQNFKGRVTVTRDTSINTAYLELTSLRLDDTSTYYCARGRDYYDQGAADLWGQGTMVTVSS VL: DIQLTQSPSSLSASVGDRVTITCRASQGINSVLAWYQQKPGKAPKLLLYAASKLESGVPSRFSGSGSGTDYTLTISSLQPEDFGTYYCQQYYSPVRTFGQGTKVEIKR | 58 |
| 1D2 SDR mutant HD31L (antibody, IgG1, V domains shown, also called X1 L) VH: QVQLVQSGAEVKKPGASVKVSCEASGYTFTLKYLHWVRQAPGQGLEWMAWINPKSGGTFYAQNFKGRVTVTRDTSINTAYLELTSLRLDDTSTYYCARGRDYYDQGAADLWGQGTMVTVSS VL: DIQLTQSPSSLSASVGDRVTITCRASQGINSVLAWYQQKPGKAPKLLLYAASKLESGVPSRFSGSGSGTDYTLTISSLQPEDFGTYYCQQYYSPVRTFGQGTKVEIKR | 57 |
| 1D2 SDR mutant HD31N (antibody, IgG1, V domains shown, also called X1 N) VH: QVQLVQSGAEVKKPGASVKVSCEASGYTFTNKYLHWVRQAPGQGLEWMAWINPKSGGTFYAQNFKGRVTVTRDTSINTAYLELTSLRLDDTSTYYCARGRDYYDQGAADLWGQGTMVTVSS VL: DIQLTQSPSSLSASVGDRVTITCRASQGINSVLAWYQQKPGKAPKLLLYAASKLESGVPSRFSGSGSGTDYTLTISSLQPEDFGTYYCQQYYSPVRTFGQGTKVEIKR | 74 |
| 1D2 SDR mutant HD31P (antibody, IgG1, V domains shown, also called X1 P) VH: QVQLVQSGAEVKKPGASVKVSCEASGYTFTPKYLHWVRQAPGQGLEWMAWINPKSGGTFYAQNFKGRVTVTRDTSINTAYLELTSLRLDDTSTYYCARGRDYYDQGAADLWGQGTMVTVSS VL: DIQLTQSPSSLSASVGDRVTITCRASQGINSVLAWYQQKPGKAPKLLLYAASKLESGVPSRFSGSGSGTDYTLTISSLQPEDFGTYYCQQYYSPVRTFGQGTKVEIKR | 69 |
| 1D2 SDR mutant HD31Q (antibody, IgG1, V domains shown, also called X1 Q) VH: QVQLVQSGAEVKKPGASVKVSCEASGYTFTQKYLHWVRQAPGQGLEWMAWINPKSGGTFYAQNFKGRVTVTRDTSINTAYLELTSLRLDDTSTYYCARGRDYYDQGAADLWGQGTMVTVSS VL: DIQLTQSPSSLSASVGDRVTITCRASQGINSVLAWYQQKPGKAPKLLLYAASKLESGVPSRFSGSGSGTDYTLTISSLQPEDFGTYYCQQYYSPVRTFGQGTKVEIKR | 74 |
| 1D2 SDR mutant HD31R (antibody, IgG1, V domains shown, also called X1 R) VH: QVQLVQSGAEVKKPGASVKVSCEASGYTFTRKYLHWVRQAPGQGLEWMAWINPKSGGTFYAQNFKGRVTVTRDTSINTAYLELTSLRLDDTSTYYCARGRDYYDQGAADLWGQGTMVTVSS VL: DIQLTQSPSSLSASVGDRVTITCRASQGINSVLAWYQQKPGKAPKLLLYAASKLESGVPSRFSGSGSGTDYTLTISSLQPEDFGTYYCQQYYSPVRTFGQGTKVEIKR | 73 |
